Data on 21 molecules can be found in US20260258115A1 (MAPP BIOPHARMACEUTICAL, published 2026).

This experiment concerns the target RSV F on RSV-A2 virus (Respiratory syncytial virus (RSV-A2)). The experiment in a line: cell-based or functional assay.

B1: ADI-41253 (antibody, V domains shown)
VH: EVQLVQSGPGLVKPSETLSLTCTVSGDSISSSDYSYYWGWIRQPPGKGLEWIASLSYSGKTYSQSSLKSRVIISVDTSKKQFSLKLSSVTAADTAVYYCAVTRCYVCTSEGDSFDMWGQGTMVTVSS
VL: DIVLTQTPGTLSLSPGERATLSCRASQSISGNYLAWYQHKPGQAPRLLIYGASTRATGIPDRFSGSGSGTDFPLTISRLEPEDFAVYYCQQYATSPYTFGQGTKVDIK
In the case of B1, the “Neutralization IC50 (RSV subtype A)” value was determined as 0.03 µg/mL.

B2: ADI-41268 (antibody, V domains shown)
VH: EVQLVESGGGLVKPGGSLRLSCVASGFGFTSYSMNWVRQAPGKGLEWVSSISASSTYIHYADSVKGRFTISRDNARNSLYLQMISLRADDTAVYYCSRDGPTYGSGVHVWGQGTMVTVSS
VL: QSALIQPVSVSGSPGQSITISCTGTRSDVGGYNYVSWYQQHPGKAPKLMIYEVRNRPSGVSDRFSGSKSGNTASLTISGLQAEDEGDYYCSSYTSSDTLFYVFGSGTKLTVL
Regarding B2, the “Neutralization IC50 (RSV subtype A)” value was 0.177 µg/mL.

B3: ADI-41267 (antibody, V domains shown)
VH: QVQLVQSGPGLVKPSGTLSLTCAVSGGSISTTHWWSWVRQPPGKGLEWIGEIYHSGSTNYNPSLKSRVTISVDKSRSQFSLKLTSVTAADTAVYYCARGDPLCSGGICYSGYFDYWGQGTLVTVSS
VL: SYVLTQPPSVSVSPGQTATITCSGDKLGDQYACWYQQKSGQSPVLVIYRDNKRPSGIPERFSGSNSGNTATLTISETQAMDEADYYCQAWGSSSVVFGGGTKVTVL
In the case of B3, the “Neutralization IC50 (RSV subtype A)” value was more than 25 µg/mL.

B4: ADI-41261 (antibody, V domains shown)
VH: QVQLVQSGAEVKKPGSSVKVSCKASGGTFSSYGISWVRQAPGQGLEWMGGIIPMFGAANYAQKFQGRVTITAETSTSTAFMELSSLRSDDTAVYYCARIRWVPNWGGTATSFYNGMDVWGQGTTVTVSS
VL: EIVMTQSPGTLSLSPGERATLSCRASQSVSSSYLAWYQQKPGQAPRLLIYGASSRATGIPDRFSGSGSGTDFTLTISRLEPEDFAVYYCQHYGSSLFTFGPGTKVDIK
Consider B4, for which the “Neutralization IC50 (RSV subtype A)” value was more than 25 µg/mL.

B5: ADI-41263 (antibody, V domains shown)
VH: QVQLVQSGAEVKKPGASVKVYCKASGYTFTSHYIHWVRQAPGQGLEWMGRMNPSGGSPMYAQKFQERVTMTRDTSTSTAYMELRSLRSEDTAVYYCAMAKFYSFDYWGQGTLVTVSS
VL: QSVLTQPHSVSESPGKTVTISCTRSSGSIASYFVHWYQQRPGSAPTIVIYEDNQRPSGVPDRFSGSIDSSSNSASLTISGLKTEDEADYYCQSYDSSNWVFGGGTKLTVL
Regarding B5, the “Neutralization IC50 (RSV subtype A)” value is more than 25 µg/mL.

B6: ADI-41273 (antibody, V domains shown)
VH: EVQLLESGGDLVRPGGSLRLSCTASGFSFSSSEMNWVRQAPGKGLEWVASINSGGDDIYYADSVKGRFTISRDNAKNSLSLQMDSLRAEDTALYYCARSRSGYSSGWSRFFGNWGQGTLVTVSS
VL: QSALTQPRSVSGSPGQSVTISCTGTISDIGAYNYVSWYQQHPGKAPKVMIYDVSKRPSGVPDRFSGSKSGFTASLTISGLQAEDEADYYCCSYAGRWVFGGGTKLTVL
As for B6, the “Neutralization IC50 (RSV subtype A)” value was more than 25 µg/mL.

B7: ADI-41271 (antibody, V domains shown)
VH: QVQLQESGPGLVKPSQTLSLTCAISGDSVSSNNAAWNWIRQSPSRGLEWLGRTYYRSKWYNDYAVSVKSRITINPDTSKNQLSLQLNSVTPEDTAVYYCARAGVRQWLVRGMDAFDIWGQGTMVTVSS
VL: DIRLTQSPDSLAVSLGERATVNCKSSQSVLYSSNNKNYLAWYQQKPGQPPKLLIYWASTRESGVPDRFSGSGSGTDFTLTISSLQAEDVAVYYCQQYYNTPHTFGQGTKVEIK
Turning to B7, the “Neutralization IC50 (RSV subtype A)” value is more than 25 µg/mL.

B8: ADI-41251 (antibody, V domains shown)
VH: EVQLVESGGGLVKPGGSLRLSCAASGFTFSDYYMTWIRQAPGKGLEWVSNISGGSSYTNYADSVKGRFTISRDNAKNSVYLQMNSLRAEDTAVYYCARVGCSGGVCNFFLDYWGQGTLVTVSS
VL: QSVLTQPPSVSGAPGQRVTISCTGSSSNIGAGYDVHWYQQLPGTAPKLLIYDNTNRPSGVPDRFSGSKSGTSASLAITGLQAEDEADYYCQSYDSSLSGYVFGTGTKVTVL
Consider B8, for which the “Neutralization IC50 (RSV subtype A)” value turned out to be 0.11 µg/mL.

B9: ADI-41256 (antibody, V domains shown)
VH: QVQLVQSGAEVKSPGSSATVSCKASGGTFGSYGISWVRQAPGQGLEWIGAIMPMFGTTNYAQKFQGRVTMTADESTSTVYMDVSSLRPDDTAVYYCVRDVFYDILTGYYDADYYHHYMDVWGKGTTVTVSS
VL: DIVMTQSPLSLPVTLGQPASISCRSGQSLVHSDGNTYLNWFQQRPGQSPRRLIYKVSNRGSGVPDRFSGSGSGTDFTLKISRVEAEDVGVYFCMQGTHWPRTFGQGTKVDIK
Turning to B9, the “Neutralization IC50 (RSV subtype A)” value turned out to be 0.02 µg/mL.

B10: ADI-41266 (antibody, V domains shown)
VH: QVQLQQSGPGLVKPSQTLSLTCAISGDSVSSNSAAWNWIRQSPSRGLEWLGRTYYRSKWYNDYAVSVKSRITINPDTSKNQFSLQLNSVTPEDTAVYYCARDLPQVDYFDGASFYFFDFWGQGTLVTVSS
VL: QPVLTQPPSVSVAPGQTASITCGGNIIGNKGVHWYQQKPGRAPVLVVYDDSDRPSGIPERFSGSNSGNTATLTISRVEAADEADYYCQVWDTGSHPVVFGGGTKVTVL
Regarding B10, the “Neutralization IC50 (RSV subtype A)” value is more than 25 µg/mL.

B11: ADI-41274 (antibody, V domains shown)
VH: EVQLVESGGGLVKPGGSLRLSCAASGFSFSSYAMNWVRQAPGKGLQWVSSISAGSSYIDYADSVKGRFTISRDNAENSLFLQMNSLRVEDTAVYYCARVGSYTHGYEFDYWGQGTLVTVSS
VL: QPVLTQPPSVSGAPGQRVTISCTGSNSNIGAGYDVHWYQQLPGTAPKLLIYASTIRPSGVPDRFSGSKSGTSASLAITGLQAEDEADYYCQSYDRNLSVVFGGGTKVTVL
As for B11, the “Neutralization IC50 (RSV subtype A)” value was determined as 0.109 µg/mL.

B12: ADI-41270 (antibody, V domains shown)
VH: EVQLVESGGGVVQPGQSLRLSCAASGFTFSSFAMHWVRQAPGKGLEWVAVISYDGSNKYYADSVKGRFTISRDNSKNTLSLQVNSLRAEDTAVYYCARVSAEGSMGRFSDFNYWGLGTLVTVSS
VL: QSALTQPASVSGSPGQSITISCTGTSSDVGSYNLVSWYQQHPGKAPKLMIYEVRKRPSGVSNRFSGSKSGNTASLTISGLQAEDEADYYCCSYAGSDTYVFGTGTKLTVL
As for B12, the “Neutralization IC50 (RSV subtype A)” value is more than 25 µg/mL.

B13: ADI-41258 (antibody, V domains shown)
VH: QVQLVQSGGGLVQRGGSLRLSCAASGFSFRSYAMSWVRQAPGKGLEWVSSISDSGDNTFYADSVKGRFSISRDNSRDTLYLQMNSLRAEDTAVYYCARGGYCSGGNCFPFDYWGQGTLVTVSS
VL: SYELMQLPSVSVSPGQTARITCSGDALPKQYGYWYQQKPGQAPVLVIYKDSERPSGIPERFSGSSSGTTVTLTISGVQAEDEADYYCQSADSGGTYVMFGGGTKLTVL
On to B13, for which the “Neutralization IC50 (RSV subtype A)” value is more than 25 µg/mL.

B14: ADI-41255 (antibody, V domains shown)
VH: EVQLVESGGGLVQPGGSLRISCAASGLTFSSYAMSWVRQAPGQGLEWVSSVSGSGVSTYYADSVKGRFTISRDNSKNTLYLQMNSLRAEDTAVYYCAKEDYYHFYMDVWGNGTTVTVSS
VL: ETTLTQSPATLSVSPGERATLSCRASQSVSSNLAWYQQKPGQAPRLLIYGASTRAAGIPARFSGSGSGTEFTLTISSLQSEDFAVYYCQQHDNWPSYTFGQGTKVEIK
As for B14, the “Neutralization IC50 (RSV subtype A)” value is more than 25 µg/mL.

B15: ADI-41264 (antibody, V domains shown)
VH: EVQLVESGGGLVKPGGSLRLSCAASGFTFSNTWMSWVRQAPGKGLEWVGHIKSKTDGGTTDYAAPVKGRFTISRDDSKSILNLHLNSLKTEDSAVYYCAALPPISGWYYTPGFWGQGTLVTVSS
VL: SYELTQPPSMSVSPGQTARITCFGDAVPKKYVYWYQQKSGQAPVMVIYDDRRRPSGIPERFSGSSSGARATLTISGAQVEDEADYYCYSTDGSGNPSFGGGTKLTVL
Regarding B15, the “Neutralization IC50 (RSV subtype A)” value was more than 25 µg/mL.

B16: ADI-41259 (antibody, V domains shown)
VH: QVQLVESGGRLVKPGGSLRLSCAASGFTFSDFYMSWIRQAPGKGLEWVSYISSSGDDPNYADSVKGRFTISRDNSKNSLYLQMNSLRAEDTAVYYCARDEVGWNNLDYYFGMDVWGQGTTVTVSS
VL: DIVMTQSPLSLPVTLGQPASISCRSSQSLVHSDGNTYLSWFHQRPGQSPRRLIYKVSNRDSGVPNRFSGGGSGTDFTLKISRVEAEDVGFFYCMQGTHWQKTFGQGTKVEIK
For the molecule B16, the “Neutralization IC50 (RSV subtype A)” value worked out at 0.02 µg/mL.

B17: ADI-41250 (antibody, V domains shown)
VH: QVQLQQWGAGLLKPSETLSLTCAVSGESLTGYFWSWIRQPPGKGLEWIGEVSHSGSTNYNPSLKSRVTMSVDTSKTQFSLKLNSVTAADTAVYYCARGYDYWSGTARYFDYWGQGILVTVSS
VL: QPVLTQPASVSGSPGQSITISCTGTSSDVGGYNYVSWYQQHPGKAPKLMIYDVSNRPSGVSSRFSGSKSGNTASLTISGLQAEDEGDYYCSSYRSSTTSRVFGGGTKVTVL
As for B17, the “Neutralization IC50 (RSV subtype A)” value was more than 25 µg/mL.

B18: ADI-41254 (antibody, V domains shown)
VH: EVQLVESGGGLVQSGGSLRLSCAASGFTFSSYEMNWVRQAPGKGLEWVSYTTNNGRTIYYADSVKGRFTISRDNAKNSLFLQMNGLRAEDTAVYYCARGIQFSRVDYAMDVWGQGTTVTVSS
VL: SYELTQPPSVSGTPGQRITISCSGSSSNIASNTVNWYQHLPGTAPKLLIYSDNQRPSGVPDRFSGSKSGTSASLAISGLQSEDEADYYCAIWDDSLNASYVFGTGTKLTVL
Regarding B18, the “Neutralization IC50 (RSV subtype A)” value was more than 25 µg/mL.

B19: ADI-41265 (antibody, V domains shown)
VH: EVQLVQSGAEVKKPGESLTISCKDSGYSFTSYWIGWVRQVPGKGLEWMGIVYPGDSRYSPSFQGHVTMSADKSINTAYLQWSTLKASDTAMYYCAKVVTYGSAIRWFESWGQGTLVTVSS
VL: QSVLTQPPSVSAAPGQKVSISCSGSSSNIGNNFVSWYQQVPGTAPKLLIIDNNKRPSGIPDRFSGSKSGTSATLGITGLQTGDEADYYCGTWDSRLSAEVFGGGTKLTVL
For the molecule B19, the “Neutralization IC50 (RSV subtype A)” value was more than 25 µg/mL.

B20: ADI-41252 (antibody, V domains shown)
VH: EVQLVQSGAEVKKPGESLKISCMGSGYNFPNYWIGWVRQMSGKGLEWMGIIYPDDSDTTYSPSFQGQVIFSADKSISTAYLQWSSLKASDTAMYFCVRLDKTTQIDFWGQGTLVTVSS
VL: EIVLTQSPSSLSASVGDRVTITCQASQDISNYLNWYQQKPGKAPKLLIYDVSNLETGVPSRFSGSGSGTDFTFTISSLQPEDIATYYCQQHDNLPLTFGQGTRLEIK
For B20, the “Neutralization IC50 (RSV subtype A)” value is more than 25 µg/mL.

B21: ADI-41257 (antibody, V domains shown)
VH: QVQLVESGAEVKKPGSSVKVSCKASEGTFSSYGISWVRQAPGQGPEWMGEINPMFGTAKYAQKFQGRVTITVDESTSTADMELSSLTSEDTAVYYCAREFLGQCSETNCPTPSRHLDYWGQGTLVTVSS
VL: EIVMTQSPSSLSASVGDRVTITCRASRTISSYLNWYQQKPGKAPKLLIYATSNLQSGVPSRFSGSGSGADFTLTISSLQPEDFATYYCQQTYSTPGFGPGTKVDIK
As to B21, the “Neutralization IC50 (RSV subtype A)” value was more than 25 µg/mL.
